The text below walks through data of patent publication US7741124B2, “Detection procedures for fibrinogen and/or fibrinogen derivatives” (priority 2003, dated 2010).

The test system of the test is vancomycin. The test can be described thus: Vancomycin-reactivity with fibrinogen split products (t-PA incubated plasma) or BrCN-cleaved fibrinogen. The test is classed as biochemical. The note with it: 50 μl 1000 IU/ml t-PA. The procedure: 25 μl P-Pool were incubated with 25 μl 0 mM or 15 mM CT in PBS for 60 min (RT). Then 50 μl 1000 IU/ml t-PA, 0.1% Triton X 100® in PBS were added. […] In addition, 10 mg/ml BrCN-cleaved fibrinogen in 6% BSA-PBS or in pooled serum were assayed in the FIATA.

B1: t-PA: t-PA, 1000 IU/ml in PBS, 0.1% Triton X 100 (protein, UniProt P00750 36-562, looked up)
Tissue-type plasminogen …: SYQVICRDEKTQMIYQQHQSWLRPVLRSNRVEYCWCNSGRAQCHSVPVKSCSEPRCFNGGTCQQALYFSDFVCQCPEGFAGKCCEIDTRATCYEDQGISYRGTWSTAESGAECTNWNSSALAQKPYSGRRPDAIRLGLGNHNYCRNPDRDSKPWCYVFKAGKYSSEFCSTPACSEGNSDCYFGNGSAYRGTHSLTESGASCLPWNSMILIGKVYTAQNPSAQALGLGKHNYCRNPDGDAKPWCHVLKNRRLTWEYCDVPSCSTCGLRQYSQPQFRIKGGLFADIASHPWQAAIFAKHRRSPGERFLCGGILISSCWILSAAHCFQERFPPHHLTVILGRTYRVVPGEEEQKFEVEKYIVHKEFDDDTYDNDIALLQLKSDSSRCAQESSVVRTVCLPPADLQLPDWTECELSGYGKHEALSPFYSERLKEAHVRLYPSSRCTSQHLLNRTVTDNMLCAGDTRSGGPQANLHDACQGDSGGPLVCLNDGRMTLVGIISWGLGCGQKDVPGVYTKVTNYLDWIRDNMRP
Consider B1, for which the “time for 50% loss of vancomycin reactivity” value reads like this: (15 mM CT-oxidized plasma) “about 1 h”; (unoxidized plasma) 6 h. Besides, the “incubation time for complete loss of vancomycin reactivity” value (25 μl 15 mM CT-oxidized citrated plasma) was determined as 3 h.
